This passage reports lowest amount detected results from patent US20170210824A1.

This test addresses 3-pTza peptide library (Ac-Cys.G/A.G/A.G/A.G/A.X.G/A.G/A.G/A.G/A-CONH2, X = 3-pTza). Description: 3-pTza peptide dot blot array.

B1: 3-pHis mAb SC44-8 (antibody, V domains shown)
VH: ESGRGLVQPGGSLTLTCTASGFSIDSYGFSWVRQAPGKGLEHIGYLTAGGRAFYASWAKSRSTITRNTNENTVTLKMTSLTAADTATYFCAKLGSGNPVAIWGPGTLVTVSS
VL: DPVMTPTPSFTSAAVGGTVTINCQSSQSVWRNKNLAWYQQKPGQPPKRLIYAIATLDSGVPSRFSGSGSGTQFTLTISDVQCDDAATYYCVGHYGSENDAYYAFGGGTEVVVKG
With B1, the lowest amount detected turned out to be 800 pg.
